Data: patent US20250115655A1, “PHARMACEUTICALS AND DEVICES FOR THE COVALENT IMMOBILIZATION TO THE EXTRACELLULAR MATRIX BY TRANSGLUTAMINASE” (JULIUS-MAXIMILIANS-UNIVERSITÄT WÜRZBURG, priority 2017, published 2025)
“Also recorded” adds a separate entry of the source.

Tests used:
[1] = doses of 0.12 mg/kg, subcutaneous injection; cited from earlier work
[2] = target: T1, Factor XIIIa (Homo sapiens, UniProt P00488); experiment: FXIIIa-mediated coupling of IGF-I to linker containing the glutamine substrate sequence (SDS-PAGE, western blot, HPLC kinetics); assay type: biochemical
T1 construct: purchased Fibrogammin®
T1 sequence (P00488 39-732 limits assumed): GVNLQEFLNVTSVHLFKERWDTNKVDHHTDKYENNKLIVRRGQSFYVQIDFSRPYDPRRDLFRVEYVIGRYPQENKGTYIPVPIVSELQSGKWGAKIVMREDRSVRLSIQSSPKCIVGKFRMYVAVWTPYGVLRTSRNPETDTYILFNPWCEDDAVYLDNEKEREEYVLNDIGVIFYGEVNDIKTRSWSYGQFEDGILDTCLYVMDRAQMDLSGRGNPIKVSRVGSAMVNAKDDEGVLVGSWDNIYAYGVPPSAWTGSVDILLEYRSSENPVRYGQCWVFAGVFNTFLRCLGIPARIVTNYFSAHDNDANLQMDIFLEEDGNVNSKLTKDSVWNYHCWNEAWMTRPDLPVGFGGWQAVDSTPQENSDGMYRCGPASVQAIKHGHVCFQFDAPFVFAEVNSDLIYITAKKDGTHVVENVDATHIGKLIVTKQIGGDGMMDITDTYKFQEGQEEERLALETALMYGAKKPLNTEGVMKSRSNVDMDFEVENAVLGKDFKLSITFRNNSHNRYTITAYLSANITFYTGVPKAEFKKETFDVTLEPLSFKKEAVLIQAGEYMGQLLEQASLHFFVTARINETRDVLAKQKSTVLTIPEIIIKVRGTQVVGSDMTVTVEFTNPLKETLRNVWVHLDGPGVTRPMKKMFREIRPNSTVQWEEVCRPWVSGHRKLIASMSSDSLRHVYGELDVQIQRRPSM
Protocol: The specificity and efficiency of the reaction was analyzed and compared to the isolated D domain (SEQ ID NO: 1) using a linker containing the glutamine substrate sequence derived from α-2 plasmin inhibitor and analyzed by SDS-PAGE and by western blotting using a monoclonal anti-IGF-I antibody (FIG. 4A). The transamidation was carried out at 37° C. for 5 min in Tris buffer (20 mM Tris-HCL, 150 mM sodium chloride, pH 7.6) with 0.1 M calcium chloride in presence of factor XIIIa (Fibrogammin®, activated with 0.02 U/ml thrombin). The resulting conjugate was analyzed by MALDI-MS and the site-specific conjugation confirmed. […] FIGS. 4A-4B: (4A) SDS PAGE and immunoblotting of human IGF-I after incubation with the glutamine substrate peptide modelled from the N-terminus of alpha-2 plasmin inhibitor (SEQ ID NO: 11) attached to a protease cleavable linker (PCL) in absence and presence of FXIIIa. (4B) HPLC analysis of IGF-I coupling kinetics mediated by […].

[3] = tested on: C2C12 myoblasts; experiment: Bioactivity of ECM-immobilized IGF-I: C2C12 myoblast proliferation (WST-1); assay type: cell-based; details: mouse myoblast cells, 48 hours
Protocol: (§1) To test this strategy, native IGF-I was immobilized onto fibroblast derived, isolated extracellular matrix in presence of Factor XIIIa (FIGS. 6A-6B). […] The transamidation reaction was carried out at 37° C. for 10 min in Tris buffer at pH 7.6 and is suitable for performance under physiological conditions. […] Bioactivity of immobilized IGF-I was confirmed by promoting cell proliferation of mouse myoblast cells (FIGS. 7A-7B).
FIGS. 7A-7B: Bioactivity of ECM-immobilized IGF-I. (7A) Native IGF-I was coupled to ECM in presence/absence of factor XIIIa, followed by seeding of C2C12 myoblasts on this naturally derived matrix and cell proliferation was measured after 48 hours incubation using WST-1 (Data are shown as mean±STDEV, n=3; ** p<0.01). (7B) The cells were fixed, stained with actin (green) and DAPI (cell nuclei, blue) and ECM-immobilized IGF-I was visualized using a monoclonal IGF-I antibody (red).

[4] = tested on: fibronectin; experiment: Immobilization of native IGF-I on fibroblast derived isolated ECM and soluble fibronectin in presence of Factor XIIIa; assay type: biochemical; details: 37° C., 10 min, antibody staining (FIG. 6A)
Protocol: as §1
FIGS. 6A-6B: (6A) Confocal laser scanning microscopy images of IGF-I immobilized on isolated ECM. The immobilized IGF-I was visualized with a monoclonal IGF-I antibody (green) und co-localized with fibronectin (red). (6B) Western Blot of human IGF-I after incubation with fibronectin in presence (lane 1) and absence (lane 2) of factor XIIIa with unreacted IGF-I as control (lane 3).

| Substance | half-life [1] | crosslinking of the complete protein, reaction kinetics by HPLC ([2]; 37° C., Tris buffer pH 7.6 (FIG. 4B)) | kinetics of the coupling reaction ([2]; human factor XIIIa) | bioactivity of immobilized IGF-I (cell proliferation) [3] | co-localization with fibronectin after conjugation to the ECM [4] |
| --- | --- | --- | --- | --- | --- |
| Mecasermin: Recombinant human IGF-I | 5.8 h |  |  |  |  |
| IGF-I: Human IGF-I, peptide hormone of 7.6 kDa, 70 amino acids |  | exceptionally fast and efficient | < 2 min | confirmed; also recorded: preserved | confirmed the co-localization with fibronectin |
